Measured values: patent publication US20210130436A1 (published 2021)

What was measured:
[1] = target: T1, human CTLA4 (huCTLA4), full-length, stably expressed on CHO cells (human, UniProt P16410 36-223); assay: flow cytometry, CHO cells expressing huCTLA4
T1 construct: whole, on cells

[2] = target: T2, human PD-L1 (huPD-L1), full-length, stably expressed on CHO cells (human, UniProt Q9NZQ7 19-290); assay: flow cytometry, CHO cells expressing huPD-L1
T2 construct: whole, on cells

[3] = target: T3, human CTLA4 expressed on CHO cells (human, UniProt P16410 36-223); assay: flow cytometry, CHO cells stably expressing CTLA4, Fc fusion at 33.3 nM
T3 construct: whole, on cells; Target on CHO cells stably expressing CTLA4; also called huCTLA4
T3 sequence (P16410 36-223): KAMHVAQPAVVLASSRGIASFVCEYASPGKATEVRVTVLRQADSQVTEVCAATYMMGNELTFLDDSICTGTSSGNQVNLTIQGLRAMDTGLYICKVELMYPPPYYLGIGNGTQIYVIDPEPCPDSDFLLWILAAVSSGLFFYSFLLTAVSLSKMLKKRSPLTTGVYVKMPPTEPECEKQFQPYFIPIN

[4] = target: T4, human PD-L1 expressed on CHO cells (human, UniProt Q9NZQ7 19-290); assay: flow cytometry, CHO cells stably expressing PD-L1, Fc fusion at 33.3 nM
T4 construct: whole, on cells; Target on CHO cells stably expressing PD-L1; also called huPD-L1
T4 sequence (Q9NZQ7 19-290): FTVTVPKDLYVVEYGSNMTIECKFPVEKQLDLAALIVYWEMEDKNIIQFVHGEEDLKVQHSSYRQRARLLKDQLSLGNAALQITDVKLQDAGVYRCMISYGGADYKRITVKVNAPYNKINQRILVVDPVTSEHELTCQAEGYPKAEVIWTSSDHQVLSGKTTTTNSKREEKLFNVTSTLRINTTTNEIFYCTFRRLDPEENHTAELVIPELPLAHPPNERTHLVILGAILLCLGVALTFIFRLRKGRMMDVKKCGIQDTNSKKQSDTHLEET

[5] = target: T5, CD28 endogenously expressed on Jurkat/IL2 reporter cells (human, UniProt P10747 19-220); assay: flow cytometry, Jurkat cells (CD28), Fc fusion at 33.3 nM
T5 construct: whole, on cells; Target on Jurkat cells; also called Jurkats (CD28)

human CD28 [6] = target: T6, human CD28 (human, UniProt P10747 19-220); assay: flow cytometry, Jurkat/IL2 reporter cells (endogenous CD28), 33.3 nM Fc fusion, PE anti-human Fc
T6 construct: whole, on cells; Jurkat/IL2 reporter cells, which endogenously express CD28

human PD-L1 [7] = target: T7, human PD-L1 (human, UniProt Q9NZQ7 19-290); assay: flow cytometry MFI relative to WT CD80 IgV-Fc, CHO/huPD-L1 cells, 33.3 nM
T7 construct: whole, on cells; CHO cells stably expressing huPD-L1; also called huPD-L1
T7 sequence (Q9NZQ7 19-290): as above

human CTLA-4 [8] = target: T8, human CTLA-4 (human, UniProt P16410 36-223); assay: flow cytometry, CHO cells stably expressing huCTLA-4, 33.3 nM Fc fusion, PE anti-human Fc
T8 construct: whole, on cells; CHO cells stably expressing huCTLA4; also called huCTLA4
T8 sequence (P16410 36-223): as the sequence (P16410 36-223) above

human CTLA-4 [9] = target: T8, human CTLA-4; assay: flow cytometry MFI relative to WT CD80 IgV-Fc, CHO/huCTLA-4 cells, 33.3 nM
human PD-L1 [10] = target: T7, human PD-L1; assay: flow cytometry, MFI on CHO/huPD-L1 cells divided by MFI on Jurkat cells (CD28), 33.3 nM
human CD28 [11] = target: T6, human CD28; assay: flow cytometry MFI relative to WT CD80 IgV-Fc, Jurkat cells (CD28), 33.3 nM
human PD-L1 [12] = target: T7, human PD-L1; assay: flow cytometry, CHO cells stably expressing huPD-L1, 33.3 nM Fc fusion, PE anti-human Fc

T1 sequence (P16410 36-223): as above
T2 sequence (Q9NZQ7 19-290): as the sequence (Q9NZQ7 19-290) above

Row | Binder | MFI at 33.3 nM [1] | MFI at 33.3 nM [2] | MFI at 33.3 nM [3] | MFI at 33.3 nM [4] | MFI at 33.3 nM [5] | MFI at 33.3 nM (human CD28 [6]) | Fold change to WT CD80 (human PD-L1 [7]) | MFI at 33.3 nM (human CTLA-4 [8]) | Fold change to WT CD80 (human CTLA-4 [9]) | Ratio of PDL1:CD28 (human PD-L1 [10]) | Fold change to WT CD80 (human CD28 [11]) | MFI at 33.3 nM (human PD-L1 [12])
1 | variant CD80 IgV-Fc E35D/D46E/M47V/V68M/L85Q (Fc fusion, not shown: small tags and cut ends; a dimerising Fc or GST) VIHVTKEVKEVATLSCGHNVSVEELAQTRIYWQKDKKMVLTMMSGEVNIWPEYKNRTIFDITNNLSIMILALRPSDEGTYECVVQKYEKDAFKREHLAEVTLSVKAD | 15500 MFI | 1720 MFI | – | – | – | – | – | – | – | – | – | –
2 | variant CD80 IgV-Fc E35D/M47V/V68M/L85M/Y87D (Fc fusion, not shown: small tags and cut ends; a dimerising Fc or GST) VIHVTKEVKEVATLSCGHNVSVEELAQTRIYWQKDKKMVLTMMSGDVNIWPEYKNRTIFDITNNLSIMILALRPSDEGTYECVVMKDEKDAFKREHLAEVTLSVKAD | 13900 MFI | 1720 MFI | – | – | – | – | – | – | – | – | – | –
3 | variant CD80 IgV-Fc R29C/E35D/M47L/V68M/A71G/L85M (Fc fusion, not shown: small tags and cut ends; a dimerising Fc or GST) VIHVTKEVKEVATLSCGHNVSVEELAQTCIYWQKDKKMVLTMMSGDLNIWPEYKNRTIFDITNNLSIMILGLRPSDEGTYECVVMKYEKDAFKREHLAEVTLSVKAD | 91 MFI | – | – | – | – | – | – | – | – | – | – | –
4 | CD80 E35D/M47V/N48K/V68M/K89N IgV-Fc (Fc fusion, not shown: small tags and cut ends; a dimerising Fc or GST) VIHVTKEVKEVATLSCGHNVSVEELAQTRIYWQKDKKMVLTMMSGDVKIWPEYKNRTIFDITNNLSIMILALRPSDEGTYECVVLKYENDAFKREHLAEVTLSVKAD | – | – | 20900 MFI | 14800 MFI | 1350 MFI | – | – | – | – | – | – | –
5 | CD80 E35D/D46V/M47V/V68M/K89N IgV-Fc (Fc fusion, not shown: small tags and cut ends; a dimerising Fc or GST) VIHVTKEVKEVATLSCGHNVSVEELAQTRIYWQKDKKMVLTMMSGVVNIWPEYKNRTIFDITNNLSIMILALRPSDEGTYECVVLKYENDAFKREHLAEVTLSVKAD | – | – | – | 21600 MFI | 2120 MFI | – | – | – | – | – | – | –
6 | CD80 E35D/M47V/K89N IgV-Fc (Fc fusion, not shown: small tags and cut ends; a dimerising Fc or GST) VIHVTKEVKEVATLSCGHNVSVEELAQTRIYWQKDKKMVLTMMSGDVNIWPEYKNRTIFDITNNLSIVILALRPSDEGTYECVVLKYENDAFKREHLAEVTLSVKAD | – | – | 39300 MFI | 4340 MFI | 507 MFI | – | – | – | – | – | – | –
7 | CD80 E35D/N48K/V68M IgV-Fc (Fc fusion, not shown: small tags and cut ends; a dimerising Fc or GST) VIHVTKEVKEVATLSCGHNVSVEELAQTRIYWQKDKKMVLTMMSGDMKIWPEYKNRTIFDITNNLSIMILALRPSDEGTYECVVLKYEKDAFKREHLAEVTLSVKAD | – | – | 33600 MFI | – | 642 MFI | – | – | – | – | – | – | –
8 | CD80 E35D/N48K/V68M/K89N IgV-Fc (Fc fusion, not shown: small tags and cut ends; a dimerising Fc or GST) VIHVTKEVKEVATLSCGHNVSVEELAQTRIYWQKDKKMVLTMMSGDMKIWPEYKNRTIFDITNNLSIMILALRPSDEGTYECVVLKYENDAFKREHLAEVTLSVKAD | – | – | – | 17400 MFI | 1530 MFI | – | – | – | – | – | – | –
9 | CD80 M47V/V68M/K89N IgV-Fc (Fc fusion, not shown: small tags and cut ends; a dimerising Fc or GST) VIHVTKEVKEVATLSCGHNVSVEELAQTRIYWQKEKKMVLTMMSGDVNIWPEYKNRTIFDITNNLSIMILALRPSDEGTYECVVLKYENDAFKREHLAEVTLSVKAD | – | – | 24800 MFI | 11800 MFI | 1320 MFI | – | – | – | – | – | – | –
10 | CD80 N48K/K89N IgV-Fc (Fc fusion, not shown: small tags and cut ends; a dimerising Fc or GST) VIHVTKEVKEVATLSCGHNVSVEELAQTRIYWQKEKKMVLTMMSGDMKIWPEYKNRTIFDITNNLSIVILALRPSDEGTYECVVLKYENDAFKREHLAEVTLSVKAD | – | – | 4370 MFI | – | 170 MFI | – | – | – | – | – | – | –
11 | WT CD80 ECD-Fc (Abcam) (Fc fusion, UniProt P33681 35-242, looked up, extracellular domain; not shown: Fc of the bought product, not described) VIHVTKEVKEVATLSCGHNVSVEELAQTRIYWQKEKKMVLTMMSGDMNIWPEYKNRTIFDITNNLSIVILALRPSDEGTYECVVLKYEKDAFKREHLAEVTLSVKADFPTPSISDFEIPTSNIRRIICSTSGGFPEPHLSWLENGEELNAINTTVSQDPETELYAVSSKLDFNMTTNHSFMCLIKYGHLRVNQTFNWNTTKQEHFPDN | – | – | – | – | 709 MFI | – | – | – | – | – | – | –
12 | variant CD80 IgV-Fc (inert) H18V/E35D/M47V/V68M/A71G/D90G (Fc fusion, not shown: inert human IgG1 Fc) VIHVTKEVKEVATLSCGVNVSVEELAQTRIYWQKDKKMVLTMMSGDVNIWPEYKNRTIFDITNNLSIMILGLRPSDEGTYECVVLKYEKGAFKREHLAEVTLSVKAD | – | – | – | – | – | 2120 MFI | 264 fold | 16800 MFI | 12.1 fold | 20.6 ratio | 20.7 fold | 43600 MFI
13 | variant CD80 IgV-Fc (inert) H18C/A26P/E35D/M47L/V68M/A71G (Fc fusion, not shown: inert human IgG1 Fc) VIHVTKEVKEVATLSCGCNVSVEELPQTRIYWQKDKKMVLTMMSGDLNIWPEYKNRTIFDITNNLSIMILGLRPSDEGTYECVVLKYEKDAFKREHLAEVTLSVKAD | – | – | – | – | – | 1910 MFI | 406 fold | 23400 MFI | 16.9 fold | 35.2 ratio | 18.7 fold | 67000 MFI
14 | variant CD80 IgV-Fc (inert) H18F/A26D/E35D/D46E/M47T/V68M/A71G/D90G (Fc fusion, not shown: inert human IgG1 Fc) VIHVTKEVKEVATLSCGFNVSVEELDQTRIYWQKDKKMVLTMMSGETNIWPEYKNRTIFDITNNLSIMILGLRPSDEGTYECVVLKYEKGAFKREHLAEVTLSVKAD | – | – | – | – | – | 6030 MFI | 167 fold | 17200 MFI | 12.4 fold | 4.6 ratio | 59.1 fold | 27500 MFI
15 | variant CD80 IgV-Fc (inert) H18F/A26N/E35D/M47V/V68M/A71G/D90K (Fc fusion, not shown: inert human IgG1 Fc) VIHVTKEVKEVATLSCGFNVSVEELNQTRIYWQKDKKMVLTMMSGDVNIWPEYKNRTIFDITNNLSIMILGLRPSDEGTYECVVLKYEKKAFKREHLAEVTLSVKAD | – | – | – | – | – | 3170 MFI | 136 fold | 15200 MFI | 11 fold | 7.1 ratio | 31.1 fold | 22400 MFI
16 | variant CD80 IgV-Fc (inert) H18I/A26P/E35D/M47V/V68M/A71G (Fc fusion, not shown: inert human IgG1 Fc) VIHVTKEVKEVATLSCGINVSVEELPQTRIYWQKDKKMVLTMMSGDVNIWPEYKNRTIFDITNNLSIMILGLRPSDEGTYECVVLKYEKDAFKREHLAEVTLSVKAD | – | – | – | – | – | 2570 MFI | 393 fold | 21900 MFI | 15.8 fold | 25.2 ratio | 25.2 fold | 64900 MFI
17 | variant CD80 IgV-Fc (inert) H18L/A26N/D46E/V68M/A71G/D90G (Fc fusion, not shown: inert human IgG1 Fc) VIHVTKEVKEVATLSCGLNVSVEELNQTRIYWQKEKKMVLTMMSGEMNIWPEYKNRTIFDITNNLSIMILGLRPSDEGTYECVVLKYEKGAFKREHLAEVTLSVKAD | – | – | – | – | – | 7250 MFI | 412 fold | 17000 MFI | 12.3 fold | 9.4 ratio | 71.1 fold | 68000 MFI
18 | variant CD80 IgV-Fc (inert) H18L/E35D/M47V/V68M/A71G/D90G (Fc fusion, not shown: inert human IgG1 Fc) VIHVTKEVKEVATLSCGLNVSVEELAQTRIYWQKDKKMVLTMMSGDVNIWPEYKNRTIFDITNNLSIMILGLRPSDEGTYECVVLKYEKGAFKREHLAEVTLSVKAD | – | – | – | – | – | 6350 MFI | 392 fold | 20300 MFI | 14.7 fold | 10.2 ratio | 62.2 fold | 64800 MFI
19 | variant CD80 IgV-Fc (inert) H18T/A26N/E35D/M47L/V68M/A71G (Fc fusion, not shown: inert human IgG1 Fc) VIHVTKEVKEVATLSCGTNVSVEELNQTRIYWQKDKKMVLTMMSGDLNIWPEYKNRTIFDITNNLSIMILGLRPSDEGTYECVVLKYEKDAFKREHLAEVTLSVKAD | – | – | – | – | – | 1370 MFI | 415 fold | 20900 MFI | 15.1 fold | 50.1 ratio | 13.4 fold | 68500 MFI
20 | variant CD80 IgV-Fc (inert) H18V/A26D/E35D/M47V/V68M/A71G/D90G (Fc fusion, not shown: inert human IgG1 Fc) VIHVTKEVKEVATLSCGVNVSVEELDQTRIYWQKDKKMVLTMMSGDVNIWPEYKNRTIFDITNNLSIMILGLRPSDEGTYECVVLKYEKGAFKREHLAEVTLSVKAD | – | – | – | – | – | 6250 MFI | 409 fold | 22100 MFI | 16 fold | 10.8 ratio | 61.3 fold | 67500 MFI
21 | variant CD80 IgV-Fc (inert) H18V/A26G/E35D/M47V/V68M/A71G/D90G (Fc fusion, not shown: inert human IgG1 Fc) VIHVTKEVKEVATLSCGVNVSVEELGQTRIYWQKDKKMVLTMMSGDVNIWPEYKNRTIFDITNNLSIMILGLRPSDEGTYECVVLKYEKGAFKREHLAEVTLSVKAD | – | – | – | – | – | 8190 MFI | 401 fold | 25400 MFI | 18.4 fold | 8.1 ratio | 80.3 fold | 66200 MFI
